For one series, the target named is T1, human GLP-1 receptor (Homo sapiens, UniProt P43220).
T1 construct: expressed in transfected cells; host or cells: HEK-293 Aurora CRE-BLAM cells
Nature of the series: GLP-1 receptor activation (in vitro potency, CRE-BLAM fluorescence assay). The settings on record: relative in vitro potency from EC50, HEK-293 Aurora CRE-BLAM cells; Val^8-GLP-1(7-37)OH control = 1. It is filed as cell-based. The source says: These HEK-293 cells have stably integrated a DNA vector having a cAmp response element (CRE) driving expression of the β-lactamase (BLAM) gene. […] The assay is further described in Zlokarnik, et al., (1998) Science 279:84-88 (See also Example 1).

Series [1] in a line: GLP aggregation assay (turbidity at 350 nm). In kind it is physicochemical. The following applies: compared to GLP-1(7-37)OH or Val^8-GLP-1(7-37)OH. As to the method: GLP peptides can be analyzed with respect to their potential to aggregate in solution.
In general, peptides in solution are stirred at elevated temperature in a suitable buffer while recording turbidity at 350 nm as a function of time. Time to the onset of aggregation is measured to quantify the potential of a given GLP molecule to aggregate under these stressed conditions.
A GLP-1 compound is first dissolved under alkaline conditions (pH 10.5) for 30 minutes to dissolve any pre-aggregated material. The solution is then adjusted to pH 7.4 and filtered. Specifically, 4 mg of a lyophilized GLP-1 compound is dissolved in 3 ml of 10 mM phosphate/10 mM citrate. The pH is adjusted to 10.0-10.5 and held for 30 minutes. The solution is adjusted with HCl to pH 7.4 and filtered through a suitable filter, for example a Millex GV syringe filter (Millipore Corporation, Bedford, Mass.). This solution is then diluted to a final sample containing 0.3 mg/mL protein in 10 mM citrate, 10 mM phosphate, 150 mM NaCl, and adjusted to pH 7.4 to 7.5. The sample is incubated at 37° C. in a quartz cuvette. Every five minutes the turbidity of the solution is measured at 350 nm on an AVIV Model 14DS UV-VIS spectrophotometer (Lakewood, N.J.). For 30 seconds prior to and during the measurement the solution is stirred using a magnetic stir bar from Stama Cells, Inc. (Atascadero, Calif.). An increase in OD at 350 nm indicates aggregation of the GLP-peptide. The time to aggregation is approximated by the intersection of linear fits to the pre-growth and growth phase according to method of Drake(Arvinte T, Cudd A, and Drake A F.(1993) J. Bio. Chem. 268, 6415-6422).
The cuvette is cleaned between experiments with a caustic soap solution (e.g., Contrad-70).
The results for a number of GLP-1 compounds are reported in Table 8 as the time in hours required for the compound to aggregate.

The nature of series [2]: GLP-1 compound/soluble basal insulin mixtures: clarity and final concentrations by HPLC. It is filed as physicochemical. How it is done: Exendin-4 (160 μg) was dissolved in 100 μL of commercial Lantus® insulin ([…], 3.6378 mg/mL). […] The solution was stored at 5° C. […] The pH was 4.0 Final concentrations of Exendin-4 and Lantus® were determined by reverse phase HPLC to be 0.9 mg/mL Exendin-4 and 3.5 mg/mL Lantus®. Based on known concentrations of excipients in the commercial formulation of Lantus®, the final concentrations of excipients in the mixture were as follows: 2.7 mg/mL m-cresol, 30 μg/mL zinc, and 17 mg/ml glycerol.
Exendin-4 (290 μg) was dissolved in 100 μL of commercial Lantus® insulin U100, 3.6378 mg/mL). […] The pH of the solution was adjusted to 4.0 with NaOH. Final concentrations of Exendin-4 and Lantus® were determined by reverse phase HPLC to be 1.6 mg/mL Exendin-4 and 3.5 mg/mL Lantus®. […]
Exendin-4 (529 μg) was dissolved in 500 μL of commercial Lantus® insulin (U100, 3.6378 mg/mL). […] Final concentrations of Exendin-4 and Lantus® were calculated to be 1 mg/mL Exendin-4 and 3.5 mg/mL Lantus®. […]
A stock solution of Val^8-Glu^22-GLP-1(7-37)OH was prepared by dissolving 2.1 mg of Val^8-Glu^22-GLP-1(7-37)OH in 1 ml of 0.01 N HCl. […] Final concentrations of Val^8-Glu^22-GLP-1(7-37)OH and Lantus® were determined by reverse phase HPLC to be 0.5 mg/mL Val^8-Glu^22-GLP-1(7-37)OH and 2.4 mg/mL Lantus®. […]

Where “and” joins values, the source holds several entries; their conditions need not be identical. Equal values may be shown once.

T1 sequence (P43220 24-463): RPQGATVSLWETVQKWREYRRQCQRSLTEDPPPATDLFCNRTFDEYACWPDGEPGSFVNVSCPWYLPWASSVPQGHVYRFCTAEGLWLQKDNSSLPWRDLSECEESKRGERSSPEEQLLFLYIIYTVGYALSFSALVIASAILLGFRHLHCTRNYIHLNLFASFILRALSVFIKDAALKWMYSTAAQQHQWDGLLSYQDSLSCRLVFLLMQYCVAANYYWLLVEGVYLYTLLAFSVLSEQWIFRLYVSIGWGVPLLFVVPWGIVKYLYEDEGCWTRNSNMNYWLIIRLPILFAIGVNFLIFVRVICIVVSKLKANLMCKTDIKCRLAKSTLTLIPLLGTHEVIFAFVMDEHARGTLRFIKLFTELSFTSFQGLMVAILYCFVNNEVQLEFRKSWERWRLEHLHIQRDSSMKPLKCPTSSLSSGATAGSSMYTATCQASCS

In the case of “Val^8-Cys^16-Lys^26-Arg^34-GLP-1(7-37)OH”, on human GLP-1 receptor, the “GLP-1 receptor activation relative to Val^8-GLP-1(7-37)OH” value was 2.4 and 1.9. As to Val^8-Cys^16-Lys^26-GLP-1(7-37)OH, on human GLP-1 receptor, the “GLP-1 receptor activation relative to Val^8-GLP-1(7-37)OH” value was 4.2. Regarding “Val^8-Glu^22-GLP-1(7-37)OH (HVEGTFTSDVSSYLEEQAAKEFIAWLVKGRG)”, in series [1], the “propensity to aggregate in solution” value is “markedly decreased propensity to aggregate”. In addition, the “appearance of stock solution” value in series [2] (2.1 mg in 1 ml 0.01 N HCl, pH 11.3 then adjusted to 4.0) is given as “remained clear”; in series [2] (4.8 mg in 1.5 ml Stock solution A (glycerin, meta-cresol, zinc), pH 11 then adjusted to 4.0) it was “remained clear”. With “Val^8-Glu^22-Ile^33-GLP-1(7-37)OH (HVEGTFTSDVSSYLEEQAAKEFIAWLIKGRG)”, the “GLP-1 receptor activation relative to Val^8-GLP-1(7-37)OH” value with human GLP-1 receptor is 4.7 and 3.8 and 3.4. As to “Val^8-Glu^22-Val^25-GLP-1(7-37)OH (HVEGTFTSDVSSYLEEQAVKEFIAWLVKGRG)”, in the series with human GLP-1 receptor, the “GLP-1 receptor activation relative to Val^8-GLP-1(7-37)OH” value is 4.7 and 2.9.

Regarding “Val^8-Glu^22-Val^25-Ile^33-GLP-1(7-37)OH (HVEGTFTSDVSSYLEEQAVKEFIAWLIKGRG)”, the “GLP-1 receptor activation relative to Val^8-GLP-1(7-37)OH” value with human GLP-1 receptor was 4.9 and 5.8 and 6.7. With “Val^8-Glu^30-GLP-1(7-37)OH (HVEGTFTSDVSSYLEGQAAKEFIEWLVKGRG)”, in series [1], the “propensity to aggregate in solution” value is “markedly decreased propensity to aggregate”. Same read-out and setting: for “Val^8-His^37-GLP-1(7-37)OH (HVEGTFTSDVSSYLEGQAAKEFIAWLVKGRH)” the value was “markedly decreased propensity to aggregate”. Regarding “Val^8-Trp^16-Glu^22-GLP-1(7-37)OH (HVEGTFTSDWSSYLEEQAAKEFIAWLVKGRG)”, in the series with human GLP-1 receptor, the “GLP-1 receptor activation relative to Val^8-GLP-1(7-37)OH” value is 4.9 and 4.6. Same read-out and setting: for “Val^8-Tyr^16-Glu^22-GLP-1(7-37)OH (HVEGTFTSDYSSYLEEQAAKEFIAWLVKGRG)” the value was 3.6 and 3.8; for “Val^8-Tyr^18-Glu^22-GLP-1(7-37)OH (HVEGTFTSDVSYYLEEQAAKEFIAWLVKGRG)”, 5.1 and 5.9. With Val^8-Val^16-GLP-1(7-37)OH, the “GLP-1 receptor activation relative to Val^8-GLP-1(7-37)OH” value at human GLP-1 receptor turned out to be 1.1.
